# Source: patent US20230051304A1 (Regeneron, published 2023)
# Target: murine IL12 receptor complex (IL12Rβ1 and IL12Rβ2) (mouse, UniProt Q60837 20-738; P97378 24-874)
# Assay: cell-based or functional assay
# murine IL12 receptor complex (IL12Rβ1 and IL12Rβ2), sequence (Q60837 20-738, chain 1 of 2): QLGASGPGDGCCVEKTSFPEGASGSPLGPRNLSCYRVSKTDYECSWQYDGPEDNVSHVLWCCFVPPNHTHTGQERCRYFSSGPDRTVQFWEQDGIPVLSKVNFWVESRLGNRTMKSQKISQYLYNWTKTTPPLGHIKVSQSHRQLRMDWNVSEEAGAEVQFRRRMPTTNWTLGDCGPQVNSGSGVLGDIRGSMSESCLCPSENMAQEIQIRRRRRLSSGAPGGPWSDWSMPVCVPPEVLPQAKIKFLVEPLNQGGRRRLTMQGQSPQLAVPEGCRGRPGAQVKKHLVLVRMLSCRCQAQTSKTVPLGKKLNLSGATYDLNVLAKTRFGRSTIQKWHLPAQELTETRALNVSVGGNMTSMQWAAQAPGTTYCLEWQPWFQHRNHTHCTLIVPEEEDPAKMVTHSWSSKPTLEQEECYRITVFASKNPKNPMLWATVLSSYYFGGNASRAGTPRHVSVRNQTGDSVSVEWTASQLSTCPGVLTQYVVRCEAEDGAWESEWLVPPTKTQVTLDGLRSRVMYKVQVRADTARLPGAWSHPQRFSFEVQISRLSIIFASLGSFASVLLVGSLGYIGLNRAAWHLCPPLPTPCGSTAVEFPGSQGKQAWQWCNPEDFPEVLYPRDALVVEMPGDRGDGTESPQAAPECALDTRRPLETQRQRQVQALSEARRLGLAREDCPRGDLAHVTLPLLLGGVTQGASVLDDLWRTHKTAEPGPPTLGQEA
# murine IL12 receptor complex (IL12Rβ1 and IL12Rβ2), sequence (P97378 24-874, chain 2 of 2): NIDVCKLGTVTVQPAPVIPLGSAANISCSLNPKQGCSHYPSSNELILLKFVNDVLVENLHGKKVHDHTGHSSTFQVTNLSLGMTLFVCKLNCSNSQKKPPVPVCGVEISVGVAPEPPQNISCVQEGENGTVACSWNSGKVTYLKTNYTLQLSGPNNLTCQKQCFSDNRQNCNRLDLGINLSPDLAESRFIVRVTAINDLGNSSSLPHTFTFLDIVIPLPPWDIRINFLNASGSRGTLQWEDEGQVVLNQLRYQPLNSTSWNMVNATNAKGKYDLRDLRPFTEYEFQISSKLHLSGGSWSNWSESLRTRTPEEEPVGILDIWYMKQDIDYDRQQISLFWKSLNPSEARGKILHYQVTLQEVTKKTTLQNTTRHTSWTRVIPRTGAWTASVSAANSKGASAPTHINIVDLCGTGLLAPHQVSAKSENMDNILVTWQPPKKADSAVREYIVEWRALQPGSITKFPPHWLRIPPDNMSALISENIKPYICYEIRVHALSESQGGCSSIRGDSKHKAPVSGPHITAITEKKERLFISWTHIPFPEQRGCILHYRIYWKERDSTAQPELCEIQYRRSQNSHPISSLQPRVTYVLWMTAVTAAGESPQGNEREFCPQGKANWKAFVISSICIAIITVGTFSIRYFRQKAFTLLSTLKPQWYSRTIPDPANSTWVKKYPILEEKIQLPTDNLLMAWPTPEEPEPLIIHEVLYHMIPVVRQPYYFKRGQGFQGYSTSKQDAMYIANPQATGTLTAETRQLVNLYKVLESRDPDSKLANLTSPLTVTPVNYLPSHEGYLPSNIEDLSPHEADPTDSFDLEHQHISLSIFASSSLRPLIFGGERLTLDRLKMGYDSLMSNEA
Binder,"EC50 (M); STAT3-Luc reporter, CTLL2/STAT3-Luc cells [M]","Fold induction at 6.25 nM; STAT3-Luc reporter, CTLL2/STAT3-Luc cells [fold]","Max fold induction; STAT3-Luc reporter, CTLL2/STAT3-Luc cells [fold]"
Monovalent: IL12(p35xp40)-Fc (Fc fusion) chain 1: RVIPVSGPARCLSQSRNLLKTTDDMVKTAREKLKHYSCTAEDIDHEDITRDQTSTLKTCLPLELHKNESCLATRETSSTTRGSCLPPQKTSLMMTLCLGSIYEDLKMYQTEFQAINAALQNHNHQQIILDKGMLVAIDELMQSLNHNGETLRQKPPVGEADPYRVKMKLCILLHAFSTRVVTINRVMGYLSSAGGGGSGGGGSGGGGSESKYGPPCPPCPAPPVAGPSVFLFPPKPKDTLMISRTPEVTCVVVDVSQEDPEVQFNWYVDGVEVHNAKTKPREEQFNSTYRVVSVLTVLHQDWLNGKEYKCKVSNKGLPSSIEKTISKAKGQPREPQVYTLPPSQEEMTKNQVSLWCLVKGFYPSDIAVEWESNGQPENNYKTTPPVLDSDGSFFLYSRLTVDKSRWQEGNVFSCSVMHEALHNHYTQKSLSLSLGK chain 2: MWELEKDVYVVEVDWTPDAPGETVNLTCDTPEEDDITWTSDQRHGVIGSGKTLTITVKEFLDAGQYTCHKGGETLSHSHLLLHKKENGIWSTEILKNFKNKTFLKCEAPNYSGRFTCSWLVQRNMDLKFNIKSSSSSPDSRAVTCGMASLSAEKVTLDQRDYEKYSVSCQEDVTCPTAEETLPIELALEARQQNKYENYSTSFFIRDIIKPDPPKNLQMKPLKNSQVEVSWEYPDSWSTPHSYFSLKFFVRIQRKKEKMKETEEGCNQKGAFLVEKTSTEVQCKGGNVCVQAQDRYYNSSCSKWACVPCRVRSGGGGSGGGGSGGGGSESKYGPPCPPCPAPPVAGPSVFLFPPKPKDTLMISRTPEVTCVVVDVSQEDPEVQFNWYVDGVEVHNAKTKPREEQFNSTYRVVSVLTVLHQDWLNGKEYKCKVSNKGLPSSIEKTISKAKGQPREPQVYTLPPSQEEMTKNQVSLSCAVKGFYPSDIAVEWESNGQPENNYKTTPPVLDSDGSFFLVSRLTVDKSRWQEGNVFSCSVMHEALHNRFTQKSLSLSPGK,6.47e-11,9.58,9.89
Bivalent: Fc-IL12*(p40*-p35*) (Fc fusion) ESKYGPPCPPCPAPPVAGPSVFLFPPKPKDTLMISRTPEVTCVVVDVSQEDPEVQFNWYVDGVEVHNAKTKPREEQFNSTYRVVSVLTVLHQDWLNGKEYKCKVSNKGLPSSIEKTISKAKGQPREPQVYTLPPSQEEMTKNQVSLTCLVKGFYPSDIAVEWESNGQPENNYKTTPPVLDSDGSFFLYSRLTVDKSRWQEGNVFSCSVMHEALHNHYTQKSLSLSLGKGGGGSGGGGSGGGGSMWELEKDVYVVEVDWTPDAPGETVNLTCDTPEEDDITWTSDQRHGVIGSGKTLTITVKEFLDAGQYTCHKGGETLSHSHLLLHKKENGIWSTEILKNFKNKTFLKCEAPNYSGRFTCSWLVQRNMDLKFNIKSSSSSPDSRAVTCGMASLSAEKVTLDQRDYEKYSVSCQEDVTSPTAEETLPIELALEARQQNKYENYSTSFFIRDIIKPDPPKNLQMKPLKNSQVEVSWEYPDSWSTPHSYFSLKFFVRIQRKKEKMKETEEGCNQKGAFLVEKTSTEVQCKGGNVCVQAQDRYYNSSCSKWACVPCRVRSGGGGSGGGGSGGGGSRVIPVSGPARCLSQSRNLLKTTDDMVKTAREKLKHYSCTAEDIDHEDITRDQTSTLKTCLPLELHKNESSLATRETSSTTRGSCLPPQKTSLMMTLCLGSIYEDLKMYQTEFQAINAALQNHNHQQIILDKGMLVAIDELMQSLNHNGETLRQKPPVGEADPYRVKMKLCILLHAFSTRVVTINRVMGYLSSA,1.8e-11,5.96,7.83
